Data taken from patent publication US20120065123A1, “Synthetic Antibodies” (priority 2009, published 2012).
Where no end group is shown, it is not given here.

Assays:
[1] = target: Tumor Necrosis Factor-alpha (TNF-α); assay: SPR equilibrium; against the TNF1 lead
[2] = target: Tumor Necrosis Factor-alpha (TNF-α); assay: SPR equilibrium, Biacore A100, TNF-α captured on chip
[3] = target: Tumor Necrosis Factor-alpha (TNF-α); assay: from SPR dissociation constants
[4] = target: Tumor Necrosis Factor-alpha (TNF-α); assay: fluorescence anisotropy
[5] = target: Tumor Necrosis Factor-alpha (TNF-α); assay: SPR kinetic fits of sensorgrams
[6] = target: Tumor Necrosis Factor-alpha (TNF-α); assay: SPR kinetic fits of several sensorgrams
transferrin [7] = assay: peptide microarray, rank by score; no organic prewash
transferrin [8] = assay: SPR steady state, Biacore T100, transferrin immobilised
transferrin [9] = assay: peptide microarray, rank by score; with organic prewash
transferrin [10] = assay: affinity characterization of the peptide; method not named
transferrin [11] = assay: against the TRF26 lead
transferrin [12] = assay: affinity characterization of the peptide; method not named; remark: listed apart in the source
transferrin [13] = assay: peptide microarray of about 10,000 peptides, rank by score (555 nm intensity squared over 647 nm intensity); no organic prewash
transferrin [14] = assay: SPR steady state affinity model, Biacore T100, transferrin immobilised (9758 RU)
transferrin [15] = assay: SPR steady state
transferrin [16] = assay: SPR kinetics, transferrin immobilised
[17] = target: Tumor Necrosis Factor-alpha (TNF-α); assay: SPR screen at 50 µM peptide, Biacore A100

T100 sequence (P02787 20-698): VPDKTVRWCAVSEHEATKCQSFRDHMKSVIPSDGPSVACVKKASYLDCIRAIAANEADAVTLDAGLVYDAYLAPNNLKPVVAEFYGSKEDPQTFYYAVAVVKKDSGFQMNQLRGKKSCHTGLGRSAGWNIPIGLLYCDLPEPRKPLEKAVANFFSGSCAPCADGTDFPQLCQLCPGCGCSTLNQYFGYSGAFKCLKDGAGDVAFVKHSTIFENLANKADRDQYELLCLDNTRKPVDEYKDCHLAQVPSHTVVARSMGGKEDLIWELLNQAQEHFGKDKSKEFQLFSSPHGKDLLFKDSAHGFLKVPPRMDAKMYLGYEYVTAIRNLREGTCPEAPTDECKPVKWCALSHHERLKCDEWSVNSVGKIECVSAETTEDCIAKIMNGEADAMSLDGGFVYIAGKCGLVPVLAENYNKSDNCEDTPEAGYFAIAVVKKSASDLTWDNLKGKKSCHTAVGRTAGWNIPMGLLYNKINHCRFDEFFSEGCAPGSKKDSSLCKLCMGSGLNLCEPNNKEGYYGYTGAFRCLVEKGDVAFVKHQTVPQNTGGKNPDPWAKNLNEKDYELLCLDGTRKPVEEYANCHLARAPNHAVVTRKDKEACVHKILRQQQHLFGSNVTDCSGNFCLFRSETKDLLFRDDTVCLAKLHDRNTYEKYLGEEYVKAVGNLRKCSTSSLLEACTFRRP
Sequence of Tumor Necrosis Factor-alpha (TNF-α) (P01375 77-233): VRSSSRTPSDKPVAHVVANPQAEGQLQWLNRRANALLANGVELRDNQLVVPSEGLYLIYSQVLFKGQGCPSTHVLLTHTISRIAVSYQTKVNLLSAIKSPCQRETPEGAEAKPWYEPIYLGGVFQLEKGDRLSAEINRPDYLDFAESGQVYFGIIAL

FERYPLKMPWSFLQSRQGSC (modifications not checked) [TNF1 D4Y+M7K double mutant]
Kd Fold-Change Relative to Lead [1]: 9.4 fold
Binding ΔG (observed) [2]: -6.54 kcal/mol
Kd [2]: 17 µM

FERYPLMMPWKFLQSRQGSC (modifications not checked) [TNF1 D4Y+S11K double mutant]
Kd Fold-Change Relative to Lead [1]: 17 fold
Binding ΔG (observed) [2]: -6.67 kcal/mol
Kd [2]: 9.3 µM

FERDYLKMPWSFLQSRQGSC (modifications not checked) [TNF1 P5Y+M7K double mutant]
Kd Fold-Change Relative to Lead [1]: 5.8 fold
Binding ΔG (observed) [2]: -6.24 kcal/mol
Kd [2]: 27 µM

FERDYLMMPWKFLQSRQGSC (modifications not checked) [TNF1 P5Y+S11K double mutant]
Kd Fold-Change Relative to Lead [1]: 6.6 fold
Binding ΔG (observed) [2]: -6.63 kcal/mol
Kd [2]: 24 µM

FERSYLKMPWSFLQSRQGSC (modifications not checked) [TNF1 D4S+P5Y+M7K triple mutant]
Kd Fold-Change Relative to Lead [1]: 11 fold
Binding ΔG (observed) [2]: -6.63 kcal/mol
Kd [2]: 14 µM

FERSYLMMPWKFLQSRQGSC (modifications not checked) [TNF1 D4S+P5Y+S11K triple mutant]
difference in observed binding energy against the P5Y+S11K mutant [3]: -0.72 kcal/mol
Kd Fold-Change Relative to Lead [1]: 23 fold
Binding ΔG (observed) [2]: -7.03 kcal/mol
Kd [2]: 7 µM

FERSYLKMPWKFLQSRQGSC (modifications not checked) [TNF1-opt (D4S+P5Y+M7K+S11K quadruple mutant of TNF1)]
Kd [4]: 1.1 µM
koff [5]: 0.2 s⁻¹
difference in observed binding energy against the D4S+P5Y+S11K mutant [3]: -0.94 kcal/mol
difference in observed binding energy against the P5Y+M7K mutant [3]: -1.73 kcal/mol
difference in observed binding energy against the P5Y+S11K mutant [3]: -1.66 kcal/mol
Kd Fold-Change Relative to Lead [1]: 100 fold
Kd [6]: 0.7 µM
Binding ΔG (observed) [2]: -7.97 kcal/mol
Kd [2]: 1.6 µM

AHKVVPQRQIRHAYNRYGSC [TRF26]
Rank - non-prewash (transferrin [7]): 596 rank
Kd (transferrin [8]): 100 µM
Rank -- prewash (transferrin [9]): 436 rank
Binding ΔG (transferrin [10]): -5.56 kcal/mol
Kd (transferrin [10]): 85 µM

AHKVVYQRQIRHAYNRYGSC [TRF26 P6Y point-mutant]
Component Binding ΔG Contribution (transferrin [11]): -1.37 kcal/mol
Kd Fold-Change Relative to Lead (transferrin [11]): 10 fold
Binding ΔG (transferrin [10]): -6.93 kcal/mol
Kd (transferrin [10]): 8.6 µM

AHKVVPQRQIRFAYNRYGSC [TRF26 H12F point-mutant]
Component Binding ΔG Contribution (transferrin [11]): -1.29 kcal/mol
Kd Fold-Change Relative to Lead (transferrin [11]): 8.8 fold
Binding ΔG (transferrin [10]): -6.85 kcal/mol
Kd (transferrin [10]): 9.7 µM
Kd (transferrin [12]): 9.8 µM

AHKVVYQRQIRFAYNRYGSC [TRF26 P6Y+H12F double mutant]
Kd Fold-Change Relative to Lead (transferrin [11]): 190 fold
Binding ΔG (observed) (transferrin [10]): -8.68 kcal/mol
Kd (transferrin [10]): 0.5 µM

KEDNPGYSSEQDYNKLDGSC [TRF19]
Kd (transferrin [8]): 150 µM
Rank -- prewash (transferrin [9]): 9600 rank
Rank - non-prewash (transferrin [13]): 5010 rank

QYHHFMNLKRQGRAQAYGSC [TRF21]
Rank - non-prewash (transferrin [7]): 84 rank
Kd (transferrin [8]): 60 µM
Rank -- prewash (transferrin [9]): 5 rank

FRGWAHIFFGPHVIYRGGSC [TRF23]
Rank - non-prewash (transferrin [7]): 2720 rank
Kd (transferrin [8]): 50 µM
Rank -- prewash (transferrin [9]): 2090 rank

GHKVVPQRQIRHAYNRYGSC [TBPL005]
Kd (transferrin [14]): 150 µM

GHKVVPQRQMRHAYNRNGSC [TBPL025]
Kd (transferrin [14]): 150 µM

AHKVVPQRQMRHAYSRYGSC [TBPM023]
fold improvement of affinity against the original peptide TRF26 (transferrin [15]): > 10 fold
Kd (transferrin [14]): 11.6 µM

GQTQFAMHRFQQWYKIKGSC [TRF20]
Rank - non-prewash (transferrin [7]): 18 rank
Rank -- prewash (transferrin [9]): 289 rank

SVKPWRPLLTGNRWLNSGSC [TRF24]
Rank - non-prewash (transferrin [7]): 71 rank
Kd (transferrin [8]): 50 µM
Rank -- prewash (transferrin [9]): 958 rank

HAYKGPGDMRRFNHSGMGSC [TRF22]
Rank - non-prewash (transferrin [7]): 711 rank
Rank -- prewash (transferrin [9]): 61 rank

APYAPQQIHYWSTLGFKGSC [TRF25]
Rank - non-prewash (transferrin [7]): 736 rank
Kd (transferrin [8]): 60 µM
Rank -- prewash (transferrin [9]): 603 rank

LDPLFNTSIMVNWHRWMGSC [TRF27]
Rank - non-prewash (transferrin [7]): 1290 rank
Rank -- prewash (transferrin [9]): 3320 rank

B1: synbody comprising TRF-26 and TRF-23 (Example 9) (designed binder)
peptide 1: AHKVVPQRQIRHAYNRYGSG
peptide 2: FRGWAHIFFGPHVIYRGGSG
modifications: not fully specified (bridges); also: both C-termini joined to the alpha and epsilon amines of a lysine linker
Kd (transferrin [16]): 0.15 µM

FERYPLMMPWSFLQSRQGSC (modifications not checked) [TNF1 D4Y point-mutant]
Component Binding ΔG Contribution [1]: -0.74 kcal/mol
Kd Fold-Change Relative to Lead [1]: 3.6 fold
fold enhancement in SPR binding response relative to TNF1 [17]: > 15 fold
Binding ΔG [2]: -5.95 kcal/mol
Kd [2]: 44 µM

FERDYLMMPWSFLQSRQGSC (modifications not checked) [TNF1 P5Y point-mutant]
Component Binding ΔG Contribution [1]: -0.58 kcal/mol
Kd Fold-Change Relative to Lead [1]: 2.7 fold
fold enhancement in SPR binding response relative to TNF1 [17]: > 15 fold
Binding ΔG [2]: -5.79 kcal/mol
Kd [2]: 58 µM

FERDPLKMPWSFLQSRQGSC (modifications not checked) [TNF1 M7K point-mutant]
Component Binding ΔG Contribution [1]: -0.72 kcal/mol
Kd Fold-Change Relative to Lead [1]: 2.8 fold
fold enhancement in SPR binding response relative to TNF1 [17]: > 15 fold
Binding ΔG [2]: -5.93 kcal/mol
Kd [2]: 57 µM

FERDPLMMPWKFLQSRQGSC (modifications not checked) [TNF1 S11K point-mutant]
Component Binding ΔG Contribution [1]: -0.82 kcal/mol
Kd Fold-Change Relative to Lead [1]: 3.9 fold
fold enhancement in SPR binding response relative to TNF1 [17]: > 15 fold
Binding ΔG [2]: -6.03 kcal/mol
Kd [2]: 40 µM
